Laboratory results as given in publication PMC2213112.
Like-named read-outs stand apart in the source and are kept apart here.

Tests used:
[1] = molecular target: P-selectin expressed on Chinese hamster ovary cells (CHO-P) (UniProt P16109); experiment: flow cytometry on cells
[2] = molecular target: P-selectin expressed on Chinese hamster ovary cells (CHO-P) (UniProt P16109); experiment: flow cytometry on cells; remark: listed apart in the source
[3] = molecular target: P-selectin expressed on Chinese hamster ovary cells (CHO-P) (UniProt P16109); experiment: flow cytometry on cells; remark: listed apart in the source
[4] = molecular target: Recombinant human P-selectin (recombinant ectodomain of P-selectin) (human) (UniProt P16109); experiment: SPR

| increase of binding over the sample without calcium or magnesium [1] [%] | increase of binding over the sample without calcium or magnesium [2] [%] | mean fluorescence intensity (MFI) of C3b-FITC [2] | increase of binding over the sample without calcium or magnesium [3] [%] | Kd [4] [µM] | Substance |
| --- | --- | --- | --- | --- | --- |
| 55 | 33 | 476 | 63 | – | FITC-conjugated purified C3b (from UniProt P01024 749-1663; P01024 749-1663) (natural protein) |
| – | – | – | – | 1 | purified C3b (from UniProt P01024 749-1663; P01024 749-1663) (natural protein) |
